Data as given in patent US20160122405A1, “HOMEODOMAIN FUSION PROTEINS AND USES THEREOF” (priority 2013, published 2016).
Changes are numbered by the printed parent chain. Entries after “also recorded” stand apart in the source; their conditions may differ. Where two headings read alike, the source gives them in different places.

Columns and labels:
Sin3 = test: method not stated
[1] = test system: Hoxa9-Meis1 immortalized AML model cells; test: Growth deficit of construct-transduced AML cells versus non-transduced cells in same well; type: cell-based, murine; settings: for Activity: activity based upon growth deficit versus non-transduced cells in same well, constructs retrovirally transduced into AML cells
[2] = test system: Hoxa9-Meis1 murine AML cells; type: in vivo, mice; settings: for Median Survival days: mouse, in vivo; for AML latency in vivo: versus vector control
[3] = test system: differentiation-specific genes (S100A8, myeloperoxidase, neutrophil elastase); test: QPCR of differentiation-specific genes in transduced Hoxa9-Meis1 cells; type: cell-based; settings: Hoxa9-Meis1 murine cells, versus vector control
[4] = test system: Mac-1 (CD11b), Gr-1 and FLT3R expression; test: Flow cytometry of cell surface markers after transduction; type: cell-based, murine; settings: 30 days
[5] = test system: Hoxa9 target genes (SOX4, CD34, FLT3R, FOXP1, DNAJC10); test: QPCR of direct Hoxa9 target genes in Hoxa9/Meis1 cells; settings: 17 days after transduction, versus GFP control
[6] = Hoxa9-Meis1 cells, retroviral expression
[7] = listed as 3X glycine linker repressor construct

Molecule: wild-type SID (Sin3-interacting domain of Mad1 protein) (from UniProt Q05195 5-29) (peptide)
- Kd (Sin3): 70 nM

Molecule: S2 mutant: S2 with DNA base contact residues of HFP domain mutated to alanine, SEQ ID NO: 32 (DPERQVKAWFAARRAKMKKINGGDPVSQVSAWFGAKRIAYKKNI)
- growth phenotype (growth deficit / growth inhibition) [1]: less growth inhibition

B1: S3: Full SID-3XNLS-HFP with GGG linker, SEQ ID NO: 30 / 35 (protein)
chain: MATAVGMNIQLLLEAADYLERREREAEHGYASMLPYDPKKKRKVDPKKKRKVDPKKKRKVGGDPERQVKIWFQNRRMKMKKINGGGDPVSQVSNWFGNKRIRYKKNIG
- growth phenotype (growth deficit / growth inhibition) [1, 6]: more growth deficit
- growth phenotype (growth deficit / growth inhibition) ([1]; Hoxa9-Meis1 cells, retroviral expression, listed as HFP): significant growth defects
- Activity [1]: ✓
- HFP-expressing cells as % of the population ([1]; by day 8, IRES GFP vector, GFP vector control 80%): 2%
- Median Survival days [2]: 94 days
- AML latency in vivo [2]: longer latency in vivo that was statistically significant
- AML latency in vivo ([2]; listed as HFP repressor): significantly longer latency
- AML latency in vivo ([2]; listed as repressor): longer latency
- mRNA levels of differentiation-specific genes [3]: higher mRNA levels
- mRNA levels of differentiation-specific genes [3, 7]: mRNA upregulation of differentiation-specific genes
- mRNA levels of differentiation-specific genes ([3]; listed as repressor): elevates differentiation-specific genes
- cell-surface expression of myeloid differentiation markers Mac-1 and Gr-1 [4, 7]: increases in cell-surface expression of myeloid differentiation markers
- surface expression of Flt3 receptor [4, 7]: decreased surface expression
- cell-surface expression of myeloid differentiation markers Mac-1 and Gr-1 ([4]; listed as repressor HFP): increases expression of Gr-1 and Mac-1 differentiation markers
- surface expression of Flt3 receptor ([4]; listed as repressor HFP): decreases expression of Flt3 receptor
- transcripts of Hoxa9 target genes [5]: suppresses multiple targets of Hoxa9; also recorded: suppresses transcripts of Hoxa9 target genes
- transcripts of Hoxa9 target genes [5, 7]: suppression of direct Hoxa9 transcriptional target genes

B2: S2: SID-3XNLS-GG linker-HoxA9-GG-PBX fusion protein, SEQ ID NO: 29 (protein)
chain: MATAVGMNIQLLLEAADYLERREREAEHGYASMLPYDPKKKRKVDPKKKRKVDPKKKRKVGGDPERQVKIWFQNRRMKMKKINGGDPVSQVSNWFGNKRIRYKKNIG
- growth phenotype (growth deficit / growth inhibition) [1, 6]: more growth deficit
- Median Survival days [2]: 67 days

B3: S3 mutant: S3 with DNA base contact residues mutated to alanine, SEQ ID NO: 33 (HFP domain) / 46 (protein)
chain: B1 chain with I70A, Q73A, N74A, M77A, N94A, N98A, R102A
- growth phenotype (growth deficit / growth inhibition) [1, 6]: less growth inhibition
- transcripts of Hoxa9 target genes ([5]; listed as mutant construct): little to no repression

B4: Fusion protein 10: HFP-3XNLS-Full SID, SEQ ID NO: 45 (protein)
chain: DPERQVKIWFQNRRMKMKKINGGGDPVSQVSNWFGNKRIRYKKNIGGGDPKKKRKVDPKKKRKVDPKKKRKVATAVGMNIQLLLEAADYLERREREAEHGYASMLPY
- Activity [1]: ✓

B5: Fusion protein 3: SID-3XNLS-HFP, SID of SEQ ID NO: 12, SEQ ID NO: 38 (protein)
chain: MVGMNIQLLLEAADYLERREREAEHGGDPKKKRKVDPKKKRKVDPKKKRKVGGDPERQVKIWFQNRRMKMKKINGGGDPVSQVSNWFGNKRIRYKKNIG
- Activity [1]: ✓

B6: Fusion protein 4: SID-3XNLS-HFP, SID of SEQ ID NO: 13, SEQ ID NO: 39 (protein)
chain: MVGMNIQLLLEAADYLERRERGGDPKKKRKVDPKKKRKVDPKKKRKVGGDPERQVKIWFQNRRMKMKKINGGGDPVSQVSNWFGNKRIRYKKNIG
- Activity [1]: ✓

B7: S1: SID-3XNLS-GG linker-HoxA9-G-PBX fusion protein, SEQ ID NO: 28 (protein)
chain: MATAVGMNIQLLLEAADYLERREREAEHGYASMLPYDPKKKRKVDPKKKRKVDPKKKRKVGGDPERQVKIWFQNRRMKMKKINGDPVSQVSNWFGNKRIRYKKNIG
- Median Survival days [2]: 62 days

B8: S4: SID-3XNLS-GG linker-HoxA9-GGGG-PBX fusion protein, SEQ ID NO: 31 (protein)
chain: MATAVGMNIQLLLEAADYLERREREAEHGYASMLPYDPKKKRKVDPKKKRKVDPKKKRKVGGDPERQVKIWFQNRRMKMKKINGGGGDPVSQVSNWFGNKRIRYKKNIG
- Median Survival days [2]: 69 days
